{
  "source": "the nanobody polyreactivity screen of Harvey et al. (2022)",
  "data": [
    {"assay": "yeast display, Sf9 membrane polyspecificity reagent, FACS + sequencing; frameworks hold sequencing errors", "in_short": "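Using colony PCR, genes from sorted yeast display clones were amplified, then sequenced on MiSeq at 2 × 250 and filtered by CDR length. The clones had been stained with 10% biotinylated, detergent-solubilized Sf9 membrane reagent for 1 hour at 4 °C and sorted by FACS into low and high (top ~1%) gates on anti-HA and streptavidin fluorescence. Polyreactivity labels come from the gate of origin.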", "values": [
      {"sequence": "QVQLEESGGGLVQAGGSLRLSCAASGSIFDLNAMGWYRQAPGKERELVAANSSGGGTYYADSVKGRFTISRDNAKNTVYLQMNSLKPEDTAVYYCAAVGYKGYGYDYWGQGTQVTVSS", "polyreactivity (PSR sort gate)": "high polyreactivity"},
      {"sequence": "QVQLEESGGGLVQAGGSLRLSCAASGSIFDSYAMGWYRAAPGKERELVATINTSGGSTYYADSVKGRFTIHDNAKNTVYLQMNSLKPEDTAVYYCNAGRWVYWQNNFGDYGYWGQGTQVTVSS", "polyreactivity (PSR sort gate)": "low polyreactivity"},
      {"sequence": "QVQLEESGGGLVQAGGSLRLSCAASGSIFDYYAMGWYRKATGKERELVAAISWSGGSTYYADSVKGRFTISRDNAKNTVYLKMIILKPEDTAVYYCAADSSGIGYSSLYFNWGQGSQVTVSS", "polyreactivity (PSR sort gate)": "low polyreactivity"},
      {"sequence": "QVQLEESGGGLVQAGGSLRLSCAASGSIFPRFYAIGWYRQAPGKERELVAAISWRDGSTFYADSVKGRFTISRDNAKNTVYLQMNSLKPEDTGVYYCAAATYRYGYGYWGQGTQVTVSS", "polyreactivity (PSR sort gate)": "high polyreactivity"},
      {"sequence": "QVQLEESGGGLVQAGGSLRLSCAASGSIFRRYARGWYRQAPGKERELVAAISRSGSSTYADSVKGRFTISRDNAKNTVYLQMNSLKPEDTAVYYCAASYAFLYYGYDSWGQGTQVTVSS", "polyreactivity (PSR sort gate)": "low polyreactivity"},
      {"sequence": "QVQLEESGGGLVQAGGSLRLSCAASGSIFSYNSMGWYRQAPGKDREFVATIDWRDGSTYYADSVKGRFTISRDNGKNTVYLQMNSMKPEDTAVYYCATDYIVVEDYYWGQGTQVTVSS", "polyreactivity (PSR sort gate)": "high polyreactivity"},
      {"sequence": "QVQLEESGGGLVQAGGSLRLSCAASGSIFTVNAMGWYRQAPGKERELVAAISSGGSTHYADSVKGRFTISRDNAKNTVYLQMNSLKPEDTAVYFCNAAGAYPDRDNYWGQGTQVTVSS", "polyreactivity (PSR sort gate)": "low polyreactivity"},
      {"sequence": "QVQLEESGGGLVQAGGSLRLSCAASGSIIDYYAMGWYRQAPGKERELVADITVTGDGTYYADSVKGRFTISRDNAKNTVYLQMNSLKPEDTAVYYCAADFWLVSFQWDFEYDYWGQGTQVTVSS", "polyreactivity (PSR sort gate)": "low polyreactivity"},
      {"sequence": "QVQLEESGGGLVQAGGSLRLSCAASGSILESNVMGWYRQAPGKERELVASISSSGDSTYADSVKGRFTISRDNAKNTVYLQMNSLKPEDTAVYYCAADRWYWTYALYYWGQGTQVTVSS", "polyreactivity (PSR sort gate)": "low polyreactivity"},
      {"sequence": "QVQLEESGGGLVQAGGSLRLSCAASGSTFAGNAMGWYRQAPGKERELVAAISGSGGITYYADSVKGRFTISRDNAKNTVYLQMNSLKAEDTAVYYCNAYYWFSRYGYWGQGTQVNVSS", "polyreactivity (PSR sort gate)": "high polyreactivity"},
      {"sequence": "QVQLEESGGGLVQAGGSLRLSCAASGSTFAPNAMGWYRAAPGKEMELVASIRRGGSTHYADSVKGRFTISRDNAKNTVYFQMNSLQPEDTAVYYCAAEFRDVSSNGYDFLGQGTQVTVSS", "polyreactivity (PSR sort gate)": "low polyreactivity"},
      {"sequence": "QVQLEESGGGLVQAGGSLRLSCAASGSTFDYYARGWYRPAPGKERELVAVISSGGSTYYADSVKGRFTISRDNAKNTVYLQMNSLKPEDTAVYYCAAETYYYVLPHWYKYKYGYWGQGTQVTVSS", "polyreactivity (PSR sort gate)": "low polyreactivity"},
      {"sequence": "QVQLEESGGGLVQAGGSLRLSCAASGSTFGYNAMGWYRQAPGKERELVAAITSGGRTKYADSVKGRFTISRDNAKNTVYLQMNSLKPEDTAVYYCATDQSYRFLFYRAYDMDYWGQGTQVTVSS", "polyreactivity (PSR sort gate)": "high polyreactivity"},
      {"sequence": "QVQLEESGGGLVQAGGSLRLSCAASGSTFGYYAMGWYRQAPGKERELVAAISWSGTRTYYADSVKGRFTISRDNAKNTVYLQMNSLKPEDTAVYYCAAVYRGSYRGSYRFDDSHYDYSGQGTQVTVSS", "polyreactivity (PSR sort gate)": "high polyreactivity"},
      {"sequence": "QVQLEESGGGLVQAGGSLRLSCAASGSTFHLYAMGLYRQAPGKEREFVAAIRGRGGNTYADSVKGRFTISRDNAKNTVYLQMNSLKPEDTAVYYCAAPLLRDLRSQYYYIYWGQCTQVTVSS", "polyreactivity (PSR sort gate)": "low polyreactivity"},
      {"sequence": "QVQLEESGGGLVQAGGSLRLSCAASGSTFNDYAMGRYRQAPGKERELVAAISSSGGITYYADSVKGRFTISRDNAKNTVYLQMNSLKPEDTEVYYCAASGRDWSWYDYWGQGTQVTVSS", "polyreactivity (PSR sort gate)": "low polyreactivity"},
      {"sequence": "QVQLEESGGGLVQAGGSLRLSCAASGSTFRRYTMGWYRQAPGKERELVAAITRGGSTYYADSVKGRFTISRDNAKNTVYLQMNSLKPEDTAVYYCAVKYFTAFRLRGDYWGQGTQVTVSS", "polyreactivity (PSR sort gate)": "high polyreactivity"},
      {"sequence": "QVQLEESGGGLVQAGGSLRLSCAASGSTFRYYVMGWYRPAPGKERYLVAAITSSGSTNYADSVKGRFTISRDNAKNTVYLQMNSLKPEDTAVYYCAAVYRDRSQKKRIFYYWGQGTQVTVSS", "polyreactivity (PSR sort gate)": "high polyreactivity"},
      {"sequence": "QVQLEESGGGLVQAGGSLRLSCAASGSTFTAYAMGWYREAPGKEMELVAAINWSGGTTYYADSVKGRFTISRDNAKNTVYLQMNSLKPEDTAVYYCAVDGNFFGEVRPYDYWGQGTQVTVSS", "polyreactivity (PSR sort gate)": "low polyreactivity"},
      {"sequence": "QVQLEESGGGLVQAGGSLRLSCAASGSTFWYYAMGWYRPAPGKERELVAALSRSTGSTYYADSVKGRFTISRDNAKNTVYLQMNSLKPEDTAVYYCAADSYDWWQYTTSVHFDYYWGQGTQVTVSS", "polyreactivity (PSR sort gate)": "low polyreactivity"},
      {"sequence": "QVQLEESGGGLVQAGGSLRLSCAASGSTFYYNAMGWYRQAPGKEREFVARISRSGGSTYADSVKGRFTISRDNAKNTVYLQMNSLKPEDTGVYYCNADAYGTPEFTSYAVRYDYWGQGTQVTVSS", "polyreactivity (PSR sort gate)": "low polyreactivity"},
      {"sequence": "QVQLEESGGGLVQAGGSLRLSCAASGSTIFGNTMGWYRQAPGKERELVATITRRGGSTYYADSVKGRFTISRDNAKNTVYLQMNSLKPEDTAVYYCAKRGPYTKYDYWGQGTQVTVSS", "polyreactivity (PSR sort gate)": "low polyreactivity"},
      {"sequence": "QVQLEESGGGLVQAGGSLRLSCAASGSTIKTYATMGWYRQAHGKERELVAAITSGSSTNYADSVKGRFTISRDTAMNTDYLQMNSLKPEDTAVYYGAADDYYNWYLGEPGDYLGQGTQVTVSS", "polyreactivity (PSR sort gate)": "low polyreactivity"},
      {"sequence": "QVQLEESGGGLVQAGGSLRLSCAASGSTLTRNAMGWYRQAPGKERELVAAITSGGRTKYADSVKGRFTISRDNAKNTVYLQMNSLKPEDTAVYYCAKGGPPGQRGYDYWGQGTQVTVSS", "polyreactivity (PSR sort gate)": "high polyreactivity"},
      {"sequence": "QVQLEESGGGLVQAGGSLRLSCAASGSTYGNSAMAGYRQAPGKERELVAAINGGPNTYYADSVKGRFTISRDNAKKTVYLQMNSLKPEDTAVYYCAAEAQAIGFHWGVDGDSWGQGTQVTVSS", "polyreactivity (PSR sort gate)": "low polyreactivity"},
      {"sequence": "QVQLEESGGGLVQAGGSLRLSCAASGYIFRFYTMGWYRQAPGKERELVAAISSGGSTNYADSVKGRFTISRANAKNTVYLQMNSLKPEDTAVYYCAARFYSRYYWGQGTQVTVSS", "polyreactivity (PSR sort gate)": "low polyreactivity"},
      {"sequence": "QVQLEESGGGLVQAGGSLRLSCAASGYISRQSAMGWYSQAPGKERELVAAITRGGAGTYYAASVKGRFTISRDNAKHTVYLQMNSLKPEDTAVYYCAKTWVSRDVEYDYWGQGTQVTVSS", "polyreactivity (PSR sort gate)": "low polyreactivity"},
      {"sequence": "QVQLEESGGGLVQAGGSLRLSCAATGGTFRDNVMGWYRQAPGKERELVAAISRNGGSTYYADTVKGRFTISRDNAKNTVYLQMTSLKPEDTAVYYCAARHLSAGGYYWGQGTQVTVSS", "polyreactivity (PSR sort gate)": "high polyreactivity"},
      {"sequence": "QVQLEESGGGLVQAGGSLRLSCAATGSIFYSYAMGSNRQAPGKEMELVATISTGGSTDYADSVKGRYTISRDNAKNTVYLQMNSLKPEETAVYYCATSGPYWWLVYWGQGTQVTVSS", "polyreactivity (PSR sort gate)": "low polyreactivity"},
      {"sequence": "QVQLEESGGGLVQAGGSLRLSCAAYGGIFKQYAMGWYRQAPGKETELVAAITWSGGSTYYADSVKGRFTISRDNAKTTVSLQMNSLKPEDTAVYYCAKDYVVFQYVDFQDDDYWGQGTQVSVSS", "polyreactivity (PSR sort gate)": "low polyreactivity"},
      {"sequence": "QVQLEESGGGLVQAGGSLRLSCAAYGSIIPFYPMGWYRQAPWTERELVAAISDRGGSTYYADSVKGRFTISRDNAKYTVYLQMNSLKPEDTAVYYGAKGGEVSQGYTDEYDYWGQGTQVTVSS", "polyreactivity (PSR sort gate)": "low polyreactivity"},
      {"sequence": "QVQLEESGGGLVQAGGSLRLSCGASGFTFRGYAMGWYIQAPGKERELVAAISKRGGSTYYADSVKGRFTISRDNAKNTVYLQMNSLKPEDTAVYYGAAEDTVYWGGVYYWTVYYWGQGTQVNVSS", "polyreactivity (PSR sort gate)": "high polyreactivity"},
      {"sequence": "QVQLEESGGGLVQAGGSLRLSCPASGRTFSVYAIGSYRPAPGKERELLAGITSGGSTNYADSVKGRFTISRDNAKNTVYLQMISLKPEDTAVYYCAAANVYAGFGFVSIGDYWGQGTQVTVSS", "polyreactivity (PSR sort gate)": "low polyreactivity"},
      {"sequence": "QVQLEESGGGLVQAGGSLRLSFAASGRIFRYYAMGWYRHAPGKERELVPRMSWSGGSTHYADSVKGRFTISRDNAKNTVYLQMNSLTPEDTAVYYCAADGNGYPYRAGRTYDYWGQGTQVTVSS", "polyreactivity (PSR sort gate)": "low polyreactivity"},
      {"sequence": "QVQLEESGGGLVQAGGSLRLSSAASGRTLVHYAIGSYRQAPGKEREMVAAISIGGDSTYADSVKGRFTISRDNAKNTVYLQMNSLKPEDTAVYYCAASGWWDFFDPYFKFDYWGQGTQVTVSS", "polyreactivity (PSR sort gate)": "low polyreactivity"},
      {"sequence": "QVQLEESGGGLVQAGGSLRLTCAASGFIFKSYTMGWYRQATGKEMELVAAITSTGGGTYYADSVKGRFTISRDNAKNTVYLQMNSLKPEDTAVYYCNARTYVTVDYDFWGQGTQVTVSS", "polyreactivity (PSR sort gate)": "high polyreactivity"},
      {"sequence": "QVQLEESGGGLVQAGGSLRLTCAASGFIFQYYTMGWYRQAPGKERELVASITGTGGSTYYADSVKGRFTISRDNAKNTVYLQMNSLKPEDTAVYYCAAREGWGYEYDYWGQGTQVTVSS", "polyreactivity (PSR sort gate)": "high polyreactivity"},
      {"sequence": "QVQLEESGGGLVQAGGSLRLTCAASGRIFYRYGMGWYRQATGKERELVAAISRTGGSTYYADSVKGRFTISRDNAKNSVYLQMNSLKPEDTAVYYCNATSNYRYDFWGQGTQVTVSS", "polyreactivity (PSR sort gate)": "low polyreactivity"},
      {"sequence": "QVQLEESGGGLVQAGGSLRLTCAASGRTFLGNAMGSYRQAPGKEREFVAVISHSGGGTSYADSVKGRFTISRDNAKNTVYLQMNSLKAEETAVYYCAAYSVSSTTWYYYDEYGYWGQGTQVTVSS", "polyreactivity (PSR sort gate)": "low polyreactivity"},
      {"sequence": "QVQLEESGGGLVQAGGSLRLTCAASGSIFGSYTMGWYRKAPGKERELVAVISYSGGSTYYADSVKGRFSISRDNAKNTVYLQMNSLKPEDTAVYYCNAARKGVGYVHPYDFWGQGTQVTVSS", "polyreactivity (PSR sort gate)": "high polyreactivity"}
    ]}
  ]
}
